Read-outs that look alike come from different tables or passages of the source.
Key:
[1] = biological target: bovine collagen (Symatese), polymerized gel (bovine); experiment: retention on polymerized bovine collagen gel, antibody loaded at 10 µg/mL, released antibody measured by ELISA
rmCTLA4 (mouse) [2] = biological target: rmCTLA4 (mouse) (UniProt P09793); experiment: ELISA
Fibronectin (human) = Fibronectin (human) (UniProt P02751); experiment: ELISA
Collagen I (human) = Collagen I (human) (UniProt P02452); experiment: ELISA
Chain of Collagen I (human) (P02452 162-1218, chain 1 of 2): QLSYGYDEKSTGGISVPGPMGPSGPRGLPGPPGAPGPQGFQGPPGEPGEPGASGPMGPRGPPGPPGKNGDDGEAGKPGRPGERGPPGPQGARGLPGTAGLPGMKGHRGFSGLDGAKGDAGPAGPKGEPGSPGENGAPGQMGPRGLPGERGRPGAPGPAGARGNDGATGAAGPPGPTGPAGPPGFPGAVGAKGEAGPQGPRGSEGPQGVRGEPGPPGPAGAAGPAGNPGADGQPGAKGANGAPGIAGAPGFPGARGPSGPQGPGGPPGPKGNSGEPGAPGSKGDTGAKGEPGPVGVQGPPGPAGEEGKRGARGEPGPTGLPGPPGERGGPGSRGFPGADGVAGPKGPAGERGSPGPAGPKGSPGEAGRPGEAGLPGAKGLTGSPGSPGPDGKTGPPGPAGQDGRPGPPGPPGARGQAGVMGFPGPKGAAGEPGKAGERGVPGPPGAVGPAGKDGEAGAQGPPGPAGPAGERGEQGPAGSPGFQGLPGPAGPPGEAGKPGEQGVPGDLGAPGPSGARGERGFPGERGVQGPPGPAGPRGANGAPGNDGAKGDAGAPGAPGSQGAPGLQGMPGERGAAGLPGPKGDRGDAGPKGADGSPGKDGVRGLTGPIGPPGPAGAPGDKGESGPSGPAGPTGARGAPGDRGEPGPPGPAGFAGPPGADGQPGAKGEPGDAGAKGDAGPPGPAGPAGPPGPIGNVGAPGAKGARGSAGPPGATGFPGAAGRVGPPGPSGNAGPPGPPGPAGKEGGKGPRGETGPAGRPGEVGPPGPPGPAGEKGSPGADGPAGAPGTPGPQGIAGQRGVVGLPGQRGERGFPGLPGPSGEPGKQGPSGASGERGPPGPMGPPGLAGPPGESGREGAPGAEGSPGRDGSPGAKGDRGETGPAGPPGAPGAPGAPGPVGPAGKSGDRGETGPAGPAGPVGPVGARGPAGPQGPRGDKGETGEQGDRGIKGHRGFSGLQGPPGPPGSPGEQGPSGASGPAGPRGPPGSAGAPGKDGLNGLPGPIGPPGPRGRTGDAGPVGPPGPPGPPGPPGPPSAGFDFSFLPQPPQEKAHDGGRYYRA
Chain of Collagen I (human) (P08123 80-1119, chain 2 of 2, further chain): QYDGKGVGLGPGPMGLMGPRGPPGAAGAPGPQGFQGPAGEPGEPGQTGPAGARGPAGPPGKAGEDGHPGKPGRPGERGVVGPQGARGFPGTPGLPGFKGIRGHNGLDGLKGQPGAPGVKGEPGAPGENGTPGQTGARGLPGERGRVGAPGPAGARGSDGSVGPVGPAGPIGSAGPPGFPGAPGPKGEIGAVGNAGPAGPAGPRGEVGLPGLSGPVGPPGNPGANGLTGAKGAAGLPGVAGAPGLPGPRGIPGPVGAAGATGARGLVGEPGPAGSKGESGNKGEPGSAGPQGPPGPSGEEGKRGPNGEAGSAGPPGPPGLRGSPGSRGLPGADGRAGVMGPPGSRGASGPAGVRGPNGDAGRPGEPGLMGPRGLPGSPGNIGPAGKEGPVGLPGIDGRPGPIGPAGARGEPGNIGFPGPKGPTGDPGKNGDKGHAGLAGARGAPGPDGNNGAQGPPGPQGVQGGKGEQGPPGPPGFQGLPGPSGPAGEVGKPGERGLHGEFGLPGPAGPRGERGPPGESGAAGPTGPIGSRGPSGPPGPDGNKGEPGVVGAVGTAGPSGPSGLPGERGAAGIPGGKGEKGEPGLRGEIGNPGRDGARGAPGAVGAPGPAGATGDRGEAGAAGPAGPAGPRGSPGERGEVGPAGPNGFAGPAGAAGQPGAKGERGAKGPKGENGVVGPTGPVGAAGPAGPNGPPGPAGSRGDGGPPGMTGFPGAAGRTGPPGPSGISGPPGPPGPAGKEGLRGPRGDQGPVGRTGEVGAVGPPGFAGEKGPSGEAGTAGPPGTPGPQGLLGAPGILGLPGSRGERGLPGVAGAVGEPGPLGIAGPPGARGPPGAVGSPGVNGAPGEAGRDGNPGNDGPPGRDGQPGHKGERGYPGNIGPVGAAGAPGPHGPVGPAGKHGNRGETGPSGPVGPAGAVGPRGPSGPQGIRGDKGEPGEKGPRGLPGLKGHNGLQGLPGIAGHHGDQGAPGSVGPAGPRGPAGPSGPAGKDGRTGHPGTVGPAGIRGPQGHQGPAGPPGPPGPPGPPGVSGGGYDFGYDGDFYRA

rmCTLA4 (mouse) [3] = biological target: rmCTLA4 (mouse) (UniProt P09793); experiment: ELISA; remark: listed apart in the source
rmCTLA4 (mouse) [4] = biological target: rmCTLA4 (mouse) (UniProt P09793); experiment: ELISA; remark: listed apart in the source

Chain of rmCTLA4 (mouse) (P09793 36-162): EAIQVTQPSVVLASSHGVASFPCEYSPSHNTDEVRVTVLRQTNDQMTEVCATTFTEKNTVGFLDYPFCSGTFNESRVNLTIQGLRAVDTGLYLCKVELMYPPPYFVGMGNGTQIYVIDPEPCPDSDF
Chain of Fibronectin (human) (P02751 32-2477): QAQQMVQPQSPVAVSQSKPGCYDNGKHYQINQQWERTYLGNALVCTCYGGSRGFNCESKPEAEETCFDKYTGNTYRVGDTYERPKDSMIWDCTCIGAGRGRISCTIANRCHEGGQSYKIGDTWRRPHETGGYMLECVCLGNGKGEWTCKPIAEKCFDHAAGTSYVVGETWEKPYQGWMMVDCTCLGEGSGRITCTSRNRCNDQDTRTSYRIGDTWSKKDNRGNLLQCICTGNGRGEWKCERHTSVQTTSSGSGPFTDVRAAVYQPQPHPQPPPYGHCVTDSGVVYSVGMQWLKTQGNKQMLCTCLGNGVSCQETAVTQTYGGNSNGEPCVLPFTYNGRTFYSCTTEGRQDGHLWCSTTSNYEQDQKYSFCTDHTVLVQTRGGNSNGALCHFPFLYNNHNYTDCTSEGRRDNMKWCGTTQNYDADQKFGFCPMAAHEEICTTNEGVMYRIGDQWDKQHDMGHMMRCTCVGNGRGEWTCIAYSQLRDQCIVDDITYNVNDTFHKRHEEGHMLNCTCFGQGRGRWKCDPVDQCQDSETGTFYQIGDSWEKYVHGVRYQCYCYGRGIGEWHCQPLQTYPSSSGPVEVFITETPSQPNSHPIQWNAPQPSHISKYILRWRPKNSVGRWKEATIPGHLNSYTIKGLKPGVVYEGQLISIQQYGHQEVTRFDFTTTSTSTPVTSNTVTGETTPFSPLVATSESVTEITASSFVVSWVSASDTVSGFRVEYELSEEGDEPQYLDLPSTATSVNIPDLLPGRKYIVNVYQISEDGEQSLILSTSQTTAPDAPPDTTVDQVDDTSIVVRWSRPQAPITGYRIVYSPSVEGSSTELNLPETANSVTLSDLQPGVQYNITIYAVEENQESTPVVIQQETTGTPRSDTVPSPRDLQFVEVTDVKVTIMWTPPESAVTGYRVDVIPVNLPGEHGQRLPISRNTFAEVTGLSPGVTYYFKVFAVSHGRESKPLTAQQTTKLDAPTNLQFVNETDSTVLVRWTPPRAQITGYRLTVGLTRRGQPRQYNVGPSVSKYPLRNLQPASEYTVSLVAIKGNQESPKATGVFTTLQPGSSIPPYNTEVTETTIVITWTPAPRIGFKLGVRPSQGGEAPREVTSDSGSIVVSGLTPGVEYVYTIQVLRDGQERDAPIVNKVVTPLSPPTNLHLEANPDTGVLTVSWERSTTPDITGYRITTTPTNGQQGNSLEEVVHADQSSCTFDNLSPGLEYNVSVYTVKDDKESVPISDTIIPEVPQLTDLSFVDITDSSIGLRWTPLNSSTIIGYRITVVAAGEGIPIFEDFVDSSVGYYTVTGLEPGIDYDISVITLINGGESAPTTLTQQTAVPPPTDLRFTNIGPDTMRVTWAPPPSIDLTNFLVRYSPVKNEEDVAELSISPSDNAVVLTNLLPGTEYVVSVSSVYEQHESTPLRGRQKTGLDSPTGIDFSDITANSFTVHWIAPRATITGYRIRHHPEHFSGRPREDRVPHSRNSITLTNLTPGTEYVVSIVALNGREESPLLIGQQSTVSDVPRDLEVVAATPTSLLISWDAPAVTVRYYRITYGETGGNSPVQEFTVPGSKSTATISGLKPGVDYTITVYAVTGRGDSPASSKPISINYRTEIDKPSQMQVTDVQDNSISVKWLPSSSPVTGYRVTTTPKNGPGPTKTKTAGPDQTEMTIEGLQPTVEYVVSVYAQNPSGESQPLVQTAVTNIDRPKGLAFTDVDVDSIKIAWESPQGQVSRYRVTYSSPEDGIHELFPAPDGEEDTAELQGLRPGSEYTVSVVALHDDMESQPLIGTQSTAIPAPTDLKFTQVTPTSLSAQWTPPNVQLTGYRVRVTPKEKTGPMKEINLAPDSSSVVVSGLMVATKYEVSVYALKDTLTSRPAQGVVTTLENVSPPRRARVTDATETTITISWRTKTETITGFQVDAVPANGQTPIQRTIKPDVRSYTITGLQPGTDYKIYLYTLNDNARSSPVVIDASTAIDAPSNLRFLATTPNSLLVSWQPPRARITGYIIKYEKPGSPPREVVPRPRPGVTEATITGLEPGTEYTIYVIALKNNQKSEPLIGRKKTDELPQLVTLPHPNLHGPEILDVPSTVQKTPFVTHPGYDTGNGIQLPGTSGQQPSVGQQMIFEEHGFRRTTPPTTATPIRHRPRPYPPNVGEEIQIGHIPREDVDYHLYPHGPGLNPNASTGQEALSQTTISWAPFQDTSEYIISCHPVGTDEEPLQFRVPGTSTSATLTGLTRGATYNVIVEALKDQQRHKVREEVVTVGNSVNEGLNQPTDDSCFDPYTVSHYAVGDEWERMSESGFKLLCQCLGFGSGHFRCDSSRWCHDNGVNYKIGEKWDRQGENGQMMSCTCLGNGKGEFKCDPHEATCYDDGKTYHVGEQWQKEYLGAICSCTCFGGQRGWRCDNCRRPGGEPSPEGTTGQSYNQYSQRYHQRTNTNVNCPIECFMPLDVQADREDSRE

| % of antibody released by plasmin digestion after buffer changes [1] [%] | Kd (rmCTLA4 (mouse) [2]) [nM] | Kd (Fibronectin (human)) [nM] | Kd (Collagen I (human)) [nM] | Kd (rmCTLA4 (mouse) [3]) [nM] | Kd (rmCTLA4 (mouse) [4]) [nM] | Substance |
| --- | --- | --- | --- | --- | --- | --- |
| < 0.1 | – | – | – | – | – | rat anti-mouse PD-L1 (clone 10F.9G2), wild-type (antibody) |
| – | 15 | – | – | – | – | 9H10 |
| – | 0.16 | 4.7 | 26.7 | 0.157 | – | PlGF-2123-144-4F10 |
| – | 5.7 | 0.87 | 1.3 | – | – | PlGF-2123-144-9H10 |
| – | 0.101 | – | – | – | 0.1 | 4F10 |

Reference: patent US20200123228A1
